Reference: patent US12122830 (ABL BIO, dated 2024)

Experiments:
[1] = target: T1, recombinant mouse ROR1 protein (Acrobiosystems, RO1-M5221) (mouse, UniProt Q9Z139 30-406); test: ELISA, recombinant mouse ROR1 protein coated at 1 µg/ml, IgG titrated, HRP anti-Fab detection
T1 construct: extracellular domain; Bought; also called mouse ROR1 antigen
Method: The anti-ROR1 antibody-antigen binding affinity was estimated by using an ELISA-based solution binding test. Specifically, a 96-well microtiter plate (Nunc-Immuno Plates, NUNC) was coated with the ROR1 protein at a concentration of 1 µg/ml in a PBS solution as described below at 4° C. for 16 hours, and non-specific binding sites were blocked with 3% BSA (bovine serum albumin) for 2 hours. For this, as the ROR1 protein, in case of human ROR1, ROR1-Fc of Example 1 or recombinant ROR1-His (Sino Biological, 13968-H08H) was used. The ROR1-His used for ELISA was a protein of sino biological company (13968-H08H) as described in the above sentence, and ROR1-His of Example 1 or recombinant mouse ROR1 protein was used (Acrobiosystems, RO1-M5221-100 µg).
Then, after adding the anti-ROR1 antibody prepared in Example 3 at the concentration described in FIG. 2 into the microtiter plate on a 96-well microtiter plate, the binding capacity was analyzed with ELISA as follows. Specifically, after constant temperature treatment for 2 hours, the plate was washed with PBS comprising 0.05% tween 20 5 times, and then a HRP-conjugated Fab multiclonal antibody reagent (Pierce, 31414) was diluted at 1:10,000 ratio, and was put into the washed microtiter plate, and it was incubated at 37° C. for 1 hour, and the ROR1 antibody bound to the plate was detected. After reaction, it was color-developed by using TMB (Tetramethylbenzidine, Sigma, T0440). The enzymatic reaction was stopped by 0.5 mol/L of sulfuric acid, and the absorbances at 450 nm and 650 nm were measured by using a micro plate reader device (molecular device) (450 nm-650 nm).

[2] = target: T2, mouse ROR1 expressed on the cell surface (CHO-mouse ROR1) (mouse, UniProt Q9Z139 30-937); test: flow cytometry on CHO cells transiently overexpressing mouse ROR1, FITC anti-human Fc detection, MFI ratio to 2nd Ab
T2 construct: whole, on cells; Temporarily transfected CHO cells
T2 sequence (Q9Z139 30-937): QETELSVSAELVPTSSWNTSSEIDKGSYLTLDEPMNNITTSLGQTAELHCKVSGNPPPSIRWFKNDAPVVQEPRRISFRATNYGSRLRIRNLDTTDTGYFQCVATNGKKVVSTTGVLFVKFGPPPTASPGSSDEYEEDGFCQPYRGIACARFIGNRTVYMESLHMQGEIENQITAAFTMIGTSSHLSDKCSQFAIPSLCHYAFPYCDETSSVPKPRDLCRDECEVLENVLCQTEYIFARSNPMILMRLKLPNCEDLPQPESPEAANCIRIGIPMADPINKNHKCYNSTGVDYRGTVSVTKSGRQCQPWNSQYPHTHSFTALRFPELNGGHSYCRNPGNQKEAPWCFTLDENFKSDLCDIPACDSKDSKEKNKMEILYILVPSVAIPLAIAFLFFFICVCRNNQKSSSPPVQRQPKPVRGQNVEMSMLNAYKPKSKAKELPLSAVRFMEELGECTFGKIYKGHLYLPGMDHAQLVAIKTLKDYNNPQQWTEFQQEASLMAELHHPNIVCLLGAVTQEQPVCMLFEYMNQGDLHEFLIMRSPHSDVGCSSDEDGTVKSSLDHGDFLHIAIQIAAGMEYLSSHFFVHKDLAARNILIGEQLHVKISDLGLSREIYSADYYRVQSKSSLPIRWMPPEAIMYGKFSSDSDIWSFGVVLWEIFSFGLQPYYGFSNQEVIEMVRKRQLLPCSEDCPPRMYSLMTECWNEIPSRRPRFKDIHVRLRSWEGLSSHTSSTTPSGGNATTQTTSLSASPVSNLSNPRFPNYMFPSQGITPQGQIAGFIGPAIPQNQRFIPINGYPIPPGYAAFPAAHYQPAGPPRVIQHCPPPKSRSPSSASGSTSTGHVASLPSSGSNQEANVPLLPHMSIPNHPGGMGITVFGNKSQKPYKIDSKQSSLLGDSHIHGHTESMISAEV
Method: For this experiment, the degree of binding of the anti-ROR1 antibody and ROR1 was measured by using FACSCalibur (BD Biosciences) device with the cell lines as follows, the cell lines artificially overexpressing the ROR1 protein by transfecting an ROR1 gene temporarily (CHO-human ROR1, CHO-human ROR2, CHO-mouse ROR1) or stably (MC38-human ROR1) (FIG. 5 and FIG. 7, respectively) or the cell lines expressing ROR1 (JeKo-1, Mino) (FIG. 6) or a cell line not expressing ROR1 (MCF7) (FIG. 6). […] JeKo-1, Mino, CHO-human ROR1, CHO-mouse ROR1 and MC38-human ROR1 are all cell lines expressing human ROR1 or mouse ROR1.
Specifically, after disassociating each cell line and washing in PBS, the number of cells was counted and set as 2×10^5 cells/200 µl PBS, and then each ROR1 monoclonal antibody in Example 3 was prepared in 10 µg/mL or as 5 fold-diluted from 10 µg/mL, and was reacted at 4° C. for 1 hour. After reaction, cells were washed in PBS and then the FITC-labeled constant region (Fc)-specific antibody (Goat anti-human IgG FITC conjugate, Fc specific, Sigma, F9512, concentration: 2.0 mg/ml) was suspended in 2 µl/1×10^5 cells/200 µl PBS, and it was reacted at 4° C. for 1 hours. The confirmation of expression degree of human ROR1, human ROR2 and mouse ROR1 that were temporarily overexpressed was analyzed by using a commercially available antibody for FACS analysis (anti-ROR1: R&D Systems, FAB2000G, anti-ROR2: R&D, FAB20641P). After reaction, cells were washed in PBS and decoded by using a FACSCalibur device. The negative control group (2nd Ab) was treated only with the FITC-labeled constant region (Fc)-specific antibody. The result for the peak shift in the experimental group treated with each ROR1 monoclonal antibody was compared to the result for the shift in the control group (Mean Fluorescence Intensity Ratio, MFI Ratio: MFI of anti-ROR1/MFI of 2nd Ab).

T1 sequence (Q9Z139 30-406): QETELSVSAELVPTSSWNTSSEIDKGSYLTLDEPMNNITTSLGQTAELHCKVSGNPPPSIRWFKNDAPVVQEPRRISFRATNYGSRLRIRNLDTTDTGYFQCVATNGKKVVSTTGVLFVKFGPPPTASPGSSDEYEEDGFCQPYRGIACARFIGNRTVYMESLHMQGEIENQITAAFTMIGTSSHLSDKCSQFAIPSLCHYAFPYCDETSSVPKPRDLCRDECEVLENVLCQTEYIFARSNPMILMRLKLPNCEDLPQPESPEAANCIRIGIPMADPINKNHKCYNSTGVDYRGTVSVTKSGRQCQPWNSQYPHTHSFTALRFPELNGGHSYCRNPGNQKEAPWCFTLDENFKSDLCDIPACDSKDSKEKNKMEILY

Row | Binder | binding result [1] | binding result [2]
1 | A2F2 anti-ROR1 IgG antibody (antibody, V domains shown) VH: EVQLLESGGGLVQPGGSLRLSCAASGFTFSDYYMSWVRQAPGKGLEWVSSISPDGSNTYYADSVKGRFTISRDNSKNTLYLQMNSLRAEDTAVYYCAKNLRAFDYWGQGTLVTVSS VL: QSVLTQPPPASGTPGQRVTISCSGSSSNIGSNTVYWYQQLPGTAPKLLIYANSQRPSGVPDRFSGSKSGTSASLAISGLRSEDEADYYCGSWDYSLSGYVFGGGTKLTVLG | binds | binds
2 | D2B12 anti-ROR1 IgG antibody (antibody, V domains shown) VH: EVQLLESGGGLVQPGGSLRLSCAASGFTFSNYDMSWVRQAPGKGLEWVSSISPSSGSSIYYADSVKGRFTISRDNSKNTLYLQMNSLRAEDTAVYYCAKAPGWCQAPSCYYDNAMDVWGQGTLVTVSS VL: QSVLTQPPSASGTPGQRVTISCSGSSSNIGNNDVSWYQQLPGTAPKLLIYDDSQRPSGVPDRFSGSKSGTSASLAISGLRSEDEADYYCGAWDDSLSGYVFGGGTKLTVLG | binds | binds
3 | A2F3 anti-ROR1 IgG antibody (antibody, V domains shown) VH: EVQLLESGGGLVQPGGSLRLSCAASGFTFSSYDMSWVRQAPGKGLEWVSWISPGGGSKYYADSVKGRFTISRDNSKNTLYLQMNSLRAEDTAVYYCARVNGRFDYWGQGTLVTVSS VL: QSVLTQPPSASGTPGQRVTISCSGSSSNIGNNNVSWYQQLPGTAPKLLIYADSHRPSGVPDRFSGSKSGTSASLAISGLRSEDEADYYCATWDYSLSGYVFGGGTKLTVLG | binds | binds
